Assay results as given in patent publication US7659073.

| Substance | cleavage of the pro leader by trypsin (N-terminal sequencing) ([-2]pPSA) | relative rate of pPSA activation by hK2 (HIC-HPLC) ([-4]pPSA) | relative rate of pPSA activation by hK2 (HIC-HPLC) ([-5]pPSA) | relative rate of pPSA activation by hK2 (HIC-HPLC) ([-2]pPSA) | relative rate of pPSA activation by hK2 (HIC-HPLC) ([-7]pPSA) |
| --- | --- | --- | --- | --- | --- |
| trypsin | there was little or no cleavage to release the SR dipeptide of the [-2]pPSA (data not shown) | – | – | – | – |
| human kallikrein 2 (hK2) | – | the [-4]pPSA was activated more slowly | The [5/-7]pPSA was activated most rapidly | [-2]pPSA was not activated by hK2 | The [5/-7]pPSA was activated most rapidly |
